{
  "source": "patent US20190367631A1",
  "about": "(Regeneron, published 2019)",
  "binders": {"B1": {"name": "H1H21234N-N297Q (antibody, V domains shown)", "VH": "QVQLQESGPGLVKPSETLSLTCTVTGGSISRNYWSWIRQPPGKGLEWIGYIYYSGSIDYNPSLKSRVTISVDTSKNQFSLKLSSMTAADTAVYYCARDRWNWKYGMDVWGQGTTVIVSS", "VL": "EIVLTQSPGTLSLSPGERATLSCRASQTVRNNYLAWYHQKPGQAPRLLIYGASSRATGIPDRFSGSGSGTDFTLTISRLEPEDFTVYYCHQYGNSPWTFGQGTKMEIKR", "notes": "Human IgG1 Fc with N297Q (EU numbering)"}, "B2": {"name": "H1H21234N-N297Q (antibody, human IgG1, V domains shown)", "VH": "B1 VH", "VL": "B1 VL", "notes": "human IgG1 Fc with N297Q (EU); also called H1H21234-N297Q"}, "B3": {"name": "H1H21234N-N297Q-LP13 (antibody, human IgG1, V domains shown)", "VH": "B1 VH", "VL": "B1 VL", "modifications": "steroid linker-payload LP13 clicked to azido-PEG3-amine on Q295 and Q297 (EU) of the heavy chain constant region", "notes": "antibody-drug conjugate; human IgG1 Fc with N297Q (EU); also called H1H21234N-LP13"}, "B4": {"name": "H1H21234N (antibody, V domains shown)", "VH": "B1 VH", "VL": "B1 VL", "notes": "Original human IgG1 Fc"}, "B5": {"name": "H1H21234N-N297Q-LP3 (antibody, human IgG1, V domains shown)", "VH": "B1 VH", "VL": "B1 VL", "modifications": "steroid linker-payload LP3 clicked to azido-PEG3-amine on Q295 and Q297 (EU) of the heavy chain constant region", "notes": "antibody-drug conjugate; human IgG1 Fc with N297Q (EU); also called H1H21234N-LP3"}, "B6": {"name": "H2aM25695N (antibody, mouse IgG2a, V domains shown)", "VH": "B1 VH with D58N, T73M, S83N, M85V", "VL": "B1 VL with N32S, T85A, H90Q, N94S, P96Y", "notes": "Human variable domains with mouse IgG2a Fc"}, "B7": {"name": "H2aM21228N (antibody, mouse IgG2a, V domains shown)", "VH": "VQLVESGGGLVQPGGSLRLSCAASGFTFSDHYMDWVRQAPGKGLEWVGRTRNKANSHTTEYAASVSGRFTISRDDSKNSLYLQMNSLKTEDTAVYYCTRAGIIGTLFDYWGQGTLVTVSS", "VL": "not shown", "notes": "as for B6"}, "B8": {"name": "H2aM21235N (antibody, mouse IgG2a, V domains shown)", "VH": "EVQLVESGGGLVQPGGSLRLSCAASGFTFSDHYMDWVRQAPGKGLEWVGRTRNKANSYTTEYAASVSGRFTISRDDSKNSLYLQMNSLKTEDTAVYYCTRAGIIGTLFDYWGQGTLVTVSS", "VL": "DIQMTQSPSSLSASVGDRVTITCRASQIIGRYLNWFQQKPGKVPKLLIYAASSLQRGVPSRFSGSGSGTDFTLTISSLQPEDFATYYCQQSYNTPPITFGQGTRLEIKR", "notes": "as for B6"}, "B9": {"name": "H2aM21229N (antibody, mouse IgG2a, V domains shown)", "VH": "EVQLVESGGGLVKPGGSLRLSCAASGFTFSRYSMNWVRQAPGKGLEWVSSISSSSSYIYYGDTVKGRFTISRDNAKKSLYLQMNSLRAEDTAVYYCVRDRGQLVLYFDYWGQGTLVTVSS", "VL": "DIQMTQSPASLSTSIRDRVTITCRASLSISSFLNWFQQRPGKAPKLLIYVASNLQSGVPSRFSDSGSGTDFTLTISSLQPEDFATYYCQQNYSTPPITFGQGTRLEIK", "notes": "as for B6"}, "B10": {"name": "H1xH29282P2 (antibody, V domains shown)", "VH": "EVQLVESGGGLVQPGGSLRLSCAASGFTFSTYAMSWVRQAPGKGLEWVSTISGRSDITYFADSVKGRFTVSRDNSKTTLYLQMNSLRAEDTAVYYCATDDDLPLDYWGQGTLVTVSS", "VL": "not shown"}},
  "key": {"[1]": {"target": "T1, human MSR1 extracellular domain expressed with a N-terminal nonahistidine tag (human, UniProt P21757 77-451)", "T1 construct": "extracellular domain; also called His9-hMSR1; His-hMSR1", "T1 sequence": "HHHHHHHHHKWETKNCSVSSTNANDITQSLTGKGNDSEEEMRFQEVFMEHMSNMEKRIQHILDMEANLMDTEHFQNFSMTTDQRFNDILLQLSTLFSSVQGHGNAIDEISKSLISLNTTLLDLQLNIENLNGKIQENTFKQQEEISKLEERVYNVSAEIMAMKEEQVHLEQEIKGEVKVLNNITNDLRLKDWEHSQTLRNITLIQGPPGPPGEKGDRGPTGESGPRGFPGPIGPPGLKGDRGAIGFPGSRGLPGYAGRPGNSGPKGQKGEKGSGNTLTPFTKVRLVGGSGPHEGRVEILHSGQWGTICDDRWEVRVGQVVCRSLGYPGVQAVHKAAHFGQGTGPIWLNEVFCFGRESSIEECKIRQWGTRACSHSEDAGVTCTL", "experiment": "competition ELISA, plate-coated His9-hMSR1; 500 nM antibody, competitor ligand 10 nM Ox-LDL", "experimental": "(§1) Buffer alone was also added to wells on each coat. […] This assay was conducted in four different assay runs.\n(§2) Data analysis was performed using a sigmoidal dose-response model within Prism™ software (GraphPad)."}, "[2]": {"target": "T1, human MSR1 extracellular domain …", "experiment": "competition ELISA, plate-coated His9-hMSR1; 100 nM antibody, competitor ligand Ac-LDL", "experimental": "as §1, §2"}, "[3]": {"target": "T1, human MSR1 extracellular domain …", "experiment": "competition ELISA, plate-coated His9-hMSR1; 300 nM antibody, competitor ligand biot-AGE-BSA", "experimental": "as §1, §2"}, "[4]": {"target": "T2, human MSR1 extracellular domain expressed with a N-terminal nonahistidine tag (His9-hMSR1); R&D Systems, Cat … (human, UniProt P21757 77-451)", "T2 construct": "extracellular domain; Bought reagent; also called His-hMSR1; 9xHis-hMSR1", "T2 sequence": "T1 sequence", "experiment": "SPR Biacore T200, 25 C, antibody captured by anti-human Fc, His9-hMSR1 injected; no dissociation seen, kd fixed at 1.00E-05", "experimental": "(§3) All binding studies were performed in 10 mM HEPES, 300 mM NaCl, 3 mM EDTA, and 0.05% v/v Surfactant Tween-20, pH 7.4 (HBS-ET) running buffer at 25° C.\n(§4) The association rate (kₐ) and dissociation rate (kd) were determined by fitting the real-time binding sensorgrams to a 1:1 binding model with mass transport limitation using Scrubber 2.0c curve-fitting software. Binding dissociation equilibrium constant (KD) and dissociative half-life (t½) were calculated from the kinetic rates as:"}, "[5]": {"target": "T2, human MSR1 extracellular domain …", "experiment": "SPR Biacore T200, 25 C, antibody captured by anti-human Fc, His9-hMSR1 injected", "experimental": "as §3, §4"}, "[6]": {"target": "T2, human MSR1 extracellular domain …", "experiment": "SPR Biacore T200, 25 C, antibody captured by anti-human Fc, His9-hMSR1 injected", "remark": "listed apart in the source", "experimental": "as §3, §4"}, "[7]": {"target": "T2, human MSR1 extracellular domain …", "experiment": "SPR Biacore T200, 25 C, antibody captured by anti-human Fc, His9-hMSR1 injected; no dissociation seen, kd fixed at 1.00E-05", "remark": "listed apart in the source", "experimental": "as §3, §4"}, "[8]": {"target": "T1, human MSR1 extracellular domain …", "experiment": "competition ELISA, plate-coated His9-hMSR1; 500 nM antibody, competitor ligand 5 nM Ox-LDL", "experimental": "as §1, §2"}, "[9]": {"target": "T3, full length human MSR1 with a C-terminal Myc tag, on HEK293.Myc.hMSR1 cells (human, UniProt P21757 1-451)", "T3 construct": "whole, on cells; stably expressed on engineered HEK293 cells; not shown: C-terminal Myc tag", "T3 sequence (looked up)": "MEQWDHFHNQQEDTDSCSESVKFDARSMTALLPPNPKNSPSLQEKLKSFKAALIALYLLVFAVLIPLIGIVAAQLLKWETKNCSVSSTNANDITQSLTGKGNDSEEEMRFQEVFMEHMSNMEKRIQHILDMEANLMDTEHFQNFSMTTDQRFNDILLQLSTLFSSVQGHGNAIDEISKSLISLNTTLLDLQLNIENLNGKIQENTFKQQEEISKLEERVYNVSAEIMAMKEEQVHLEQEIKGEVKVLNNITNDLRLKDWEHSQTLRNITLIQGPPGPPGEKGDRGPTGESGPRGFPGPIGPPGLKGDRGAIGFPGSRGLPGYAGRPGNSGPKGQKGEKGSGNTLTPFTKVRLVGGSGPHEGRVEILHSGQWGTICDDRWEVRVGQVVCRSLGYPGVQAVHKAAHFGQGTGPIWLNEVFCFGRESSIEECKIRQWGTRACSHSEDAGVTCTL", "experiment": "ECL cell binding, HEK293.Myc.hMSR1 cells, 11 nM"}, "[10]": {"target": "T4, full length monkey MSR1 on HEK293.mfMSR1 cells (Macaca fascicularis, UniProt A0A2K5UWE2 1-451)", "T4 construct": "whole, on cells", "T4 sequence": "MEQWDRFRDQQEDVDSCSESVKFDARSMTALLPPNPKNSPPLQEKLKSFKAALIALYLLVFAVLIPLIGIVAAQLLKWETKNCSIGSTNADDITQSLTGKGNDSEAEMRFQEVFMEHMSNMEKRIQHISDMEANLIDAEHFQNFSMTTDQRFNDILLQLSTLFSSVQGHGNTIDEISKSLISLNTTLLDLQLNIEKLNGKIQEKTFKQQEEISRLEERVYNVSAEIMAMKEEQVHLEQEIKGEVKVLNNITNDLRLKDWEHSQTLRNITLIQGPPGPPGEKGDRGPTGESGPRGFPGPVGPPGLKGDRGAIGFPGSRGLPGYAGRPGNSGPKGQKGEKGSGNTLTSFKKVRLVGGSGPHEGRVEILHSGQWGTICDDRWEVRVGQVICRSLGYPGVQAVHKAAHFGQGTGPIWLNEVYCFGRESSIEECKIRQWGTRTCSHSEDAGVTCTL", "experiment": "ECL cell binding, HEK293.mfMSR1 cells, 11 nM", "experimental": "All cells were washed once with 1×PBS with Ca²⁺/Mg²⁺ and counted with a Cellometer™ Auto T4 cell counter (Nexcelom Bioscience). Approximately 1.0×10⁴ cells were seeded separately onto 96-well carbon electrode plates [MULTI-ARRAY high bind plate, Meso Scale Diagnostics] and incubated for 1 hour at 37° C. Non-specific binding sites were then blocked by 2% BSA (w/v) in PBS with Ca²⁺/Mg²⁺ for 1 hour at room temperature. THP-1 cells were pre-incubated for 0.5 hours at room temperature in sample dilution buffer with: 1) 1 mg/mL Fc receptor block reagents to block Fc gamma receptors on THP-1 cell surface [whole molecule human IgG (Jackson Immunoresearch, Cat #009-000-003) for wells being tested with anti-MSR1-mFc antibodies or 2) whole molecule mlgG (Jackson Immunoresearch, Cat #015-000-003) for wells being tested with anti-MSR1-hFc antibodies. Antibody binding on HEK293.Myc.hMSR1, HEK293.mfMSR1 and HEK293 cells was tested without Fc receptor block reagents. […] Plates were then washed to remove unbound antibodies an AquaMax2000 plate washer with a cell washing head (MDS Analytical Technologies). […] Plates were washed and developed with Read Buffer (Meso Scale Diagnostics, Cat # R92TD-2) according to manufacturer's recommended procedure and luminescent signals were recorded with a SECTOR Imager 600 (Meso Scale Diagnostics). Luminescence intensity, measured in relative light units (RLU), was recorded to indicate the binding intensity of each antibody at the range of concentrations."}, "[11]": {"target": "T4, full length monkey MSR1 on …", "experiment": "ECL cell binding, HEK293.mfMSR1 cells; section head of Table 10"}},
  "note": "Changes are numbered by the printed parent chain. Numbers in names are those of the source. Like-named read-outs stand apart in the source and are kept apart here.",
  "data": [
    {"binder": "B1", "values": [
      {"measurement": "% Blocking", "setting": "[1]", "value": 49, "unit": "%"},
      {"measurement": "% Blocking", "setting": "[2]", "value": 75, "unit": "%"},
      {"measurement": "% Blocking", "setting": "[3]", "value": -27, "unit": "%"}
    ]},
    {"binder": "B2", "values": [
      {"measurement": "Kd", "setting": "[4]", "value": "≤ 0.0454", "unit": "nM"},
      {"measurement": "koff", "setting": "[4]", "value": "≤ 1e-05", "unit": "s⁻¹"},
      {"measurement": "t½", "setting": "[4]", "value": "≥ 19.3", "unit": "h"},
      {"measurement": "kon", "setting": "[5]", "value": 220000, "unit": "M⁻¹ s⁻¹"},
      {"measurement": "kon", "setting": "[6]", "value": 300000, "unit": "M⁻¹ s⁻¹"},
      {"measurement": "Kd", "setting": "[7]", "value": "≤ 0.0333", "unit": "nM"},
      {"measurement": "koff", "setting": "[7]", "value": "≤ 1e-05", "unit": "s⁻¹"},
      {"measurement": "t½", "setting": "[7]", "value": "≥ 19.3", "unit": "h"}
    ]},
    {"binder": "B3", "values": [
      {"measurement": "kon", "setting": "[6]", "value": 400000, "unit": "M⁻¹ s⁻¹"},
      {"measurement": "Kd", "setting": "[7]", "value": "≤ 0.025", "unit": "nM"},
      {"measurement": "koff", "setting": "[7]", "value": "≤ 1e-05", "unit": "s⁻¹"},
      {"measurement": "t½", "setting": "[7]", "value": "≥ 19.3", "unit": "h"}
    ]},
    {"binder": "B4", "values": [
      {"measurement": "% Blocking", "setting": "[1]", "value": 98, "unit": "%"},
      {"measurement": "% Blocking", "setting": "[2]", "value": 70, "unit": "%"},
      {"measurement": "% Blocking", "setting": "[3]", "value": 21, "unit": "%"}
    ]},
    {"binder": "B5", "values": [
      {"measurement": "kon", "setting": "[6]", "value": 417000, "unit": "M⁻¹ s⁻¹"},
      {"measurement": "Kd", "setting": "[7]", "value": "≤ 0.024", "unit": "nM"},
      {"measurement": "koff", "setting": "[7]", "value": "≤ 1e-05", "unit": "s⁻¹"},
      {"measurement": "t½", "setting": "[7]", "value": "≥ 19.3", "unit": "h"}
    ]},
    {"binder": "B6", "values": [
      {"measurement": "% Blocking", "setting": "[1]", "value": 96, "unit": "%"},
      {"measurement": "% Blocking", "setting": "[2]", "value": 65, "unit": "%"},
      {"measurement": "% Blocking", "setting": "[3]", "value": 16, "unit": "%"}
    ]},
    {"binder": "B7", "values": [
      {"measurement": "% Blocking", "setting": "[8]", "value": 41, "unit": "%"},
      {"measurement": "% Blocking", "setting": "[2]", "value": -32, "unit": "%"},
      {"measurement": "% Blocking", "setting": "[3]", "value": -1, "unit": "%"}
    ]},
    {"binder": "B8", "values": [
      {"measurement": "% Blocking", "setting": "[8]", "value": -4, "unit": "%"},
      {"measurement": "% Blocking", "setting": "[2]", "value": 24, "unit": "%"},
      {"measurement": "% Blocking", "setting": "[3]", "value": -24, "unit": "%"}
    ]},
    {"binder": "B9", "values": [
      {"measurement": "% Blocking", "setting": "[8]", "value": 38, "unit": "%"},
      {"measurement": "% Blocking", "setting": "[2]", "value": -11, "unit": "%"},
      {"measurement": "% Blocking", "setting": "[3]", "value": 3, "unit": "%"}
    ]},
    {"binder": "B10", "values": [
      {"measurement": "ratio of binding signal (RLU) to isotype control", "setting": "[9]", "value": 9, "unit": "fold"},
      {"measurement": "ratio of binding signal (RLU) to isotype control", "setting": "[10]", "value": 1, "unit": "fold"},
      {"measurement": "binding result", "setting": "[11]", "value": "no binding (tested: 11 nM)"}
    ]}
  ]
}
